# Laboratory results taken from US20180112219.
# Assays:
# [1] = tested on: 5' NS-TALEN (in cells) (artificial (TALE-FokI)); assay: cell_activity; conditions: NS pair in HeLa-tat-III/LTR/d1EGFP cells; 2 of 23 clones mutated
# [2] = tested on: 5' NS-TALEN (artificial (TALE-FokI)); assay: cleavage_in_vitro; conditions: pair with 3' HT-TALEN; 747 bp PCR template, 30 C
sequence,measurement,setting,value
"TCTCTGGTTAGACCAGATCT (double strand) [5' TALE binding target, HIV-1 LTR TAR]",activity,[1],30 % GFP loss
same,activity,[2],42 % cleavage
